± gives the standard error. Variants at the floor of the assay were thinned out.
B1: glmS ribozyme (parent)
chain: AUAAAAGCGCCAGAACUACAGAAAUGUAGUUGACGAGGAGGAGGUUUAUCGAAUUUUCGGCGGAUGCCUCCAAA

Variants of: B1
Experiment: self-cleavage kobs at 640 uM GlcN6P; higher = faster cleavage; RNA array
Settings: with glucosamine-6-phosphate
Outline: (§1)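 The measurements used barcoded ribozyme variants on sequenced MiSeq chips, transcribed in situ by E. coli RNA polymerase and tracked at 37 °C with a hybridised Cy3 probe. Glucosamine-6-phosphate, 40 μM to 10 mM in HEPES/KCl/Mg(OAc)2 buffer, was flowed in while tiles were imaged over ~14 h. Baseline-normalised signals, also normalised to non-cleaving reference variants, gave per-tile medians that were fit to one- or two-exponential decays for kobs. kcat and KM resulted from weighted Michaelis–Menten fits across concentrations.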
For AUAAAAGCGCCAGAACUACAGAAAUGUAAUUGACGAGGAGGGGGUUUAUCGAAUUGUCGGCGGAUGCCUCCAAA, the “self-cleavage kobs at 640 uM GlcN6P” value was 0.000337 ± 0.00011 s⁻¹. AUAAAAGCGCCAGAACUACAGAAAUGUAGUUGACGAGGAGGAGGUUUGCCGAAUUUUCGGCGGAUACCUCCAAA was tested, and the “self-cleavage kobs at 640 uM GlcN6P” value was under 1e-05 s⁻¹. AUAAAAGCGCCAGAACUACAGAAAUGUAGUCGACGAGGAGGAGAUUUAUAGAAUUUUCGGCGGAUGCCUCCAAA was tested, and the “self-cleavage kobs at 640 uM GlcN6P” value was under 1e-05 s⁻¹. AUAAAAGCGCCAGAAUUACAGAAAUGUAGUUGACGUGUAGGAGGUGUAUCGAAUUUUCGGCGGAUGCCUCCAAA was tested, and the “self-cleavage kobs at 640 uM GlcN6P” value was under 1e-05 s⁻¹. For AUAAAAGCGCCAGAACUACAGAAAUGUAGUUGACGAGGAGGAGGUUUAUCGCAUUUUCAGCGGAAGCCUCCAAA, the “self-cleavage kobs at 640 uM GlcN6P” value was under 1e-05 s⁻¹. In the case of AUAAAAGCGGCAGACCUACAGAAAUGUAGUUGACGAGGAGGAGGUUUAUAGAAUUUUCGGCGGAUGCCUCCAAA, the “self-cleavage kobs at 640 uM GlcN6P” value is reported as under 1e-05 s⁻¹. AUAAAAGCGCCAGAACUACAGAAAUGUAGAUAACGAUGAGGAGGUUUACCGAAUUUUCGGCGGUUGCCUCCAAA was tested, and the “self-cleavage kobs at 640 uM GlcN6P” value was under 1e-05 s⁻¹. In the case of AUAAAAGUGCCAGAACUACAGAAAUGUAGUUGACGAGGAGGAGGUUUGUCGAAUUUUCGGCGGGUGCCUCCAAA, the “self-cleavage kobs at 640 uM GlcN6P” value is reported as under 1e-05 s⁻¹. AUAAAAGCGCCAGAACUACAGAAAUGUAGUUGACUAGGAGGAGCUUUAUCGAAUUUUCGGCGGAUUCCUCCAAA was tested, and the “self-cleavage kobs at 640 uM GlcN6P” value was under 1e-05 s⁻¹. With AUAAAAGCGCCAGAACUACAGAAAUGUAGGUAACGAGCAGGAGGUUUAUCGAAUUUCCGGCGGACGCCUCCAAA the “self-cleavage kobs at 640 uM GlcN6P” value was under 1e-05 s⁻¹. AUAAAAGCGCCAGUACUACAGAAAUGUAGUUGACGAGGCGGAGGUUUAUCGAAUUUUCGGCGGGUGCCUCCAAA was tested, and the “self-cleavage kobs at 640 uM GlcN6P” value was 0.000213 ± 5e-05 s⁻¹. In the case of AUAAAAGCGCCAGAACUACAGAAAUGUAGUUGACAAGGCGGAGGUUCAUCGAAUUGUCGGCGGAUGCCUCCAAA, the “self-cleavage kobs at 640 uM GlcN6P” value is reported as under 1e-05 s⁻¹. AUAAAAGCGCAAGAACUACAGAAAUGUAGUUGACGGGGAGGAGGUUUAUAGAAUUUUCGGCGGCUGCAUCCAAA was tested, and the “self-cleavage kobs at 640 uM GlcN6P” value was under 1e-05 s⁻¹. With AUAAAAGCGCCAGAACUACAGAAAUGUAGUGGACGAGGAGGAGAUAUAUCGAAUUUUCGGCCGAUGCCUCCAAA the “self-cleavage kobs at 640 uM GlcN6P” value was under 1e-05 s⁻¹. AUAAAAGCGCCAGAACUACAGAAAUGUAGUUGACGAGGAGGAGGUUUAUCGAAUUUUCUGCAGAUGCCUGCAAA was tested, and the “self-cleavage kobs at 640 uM GlcN6P” value was 5.34e-05 ± 1.5e-05 s⁻¹. With AUAAAAGCGCCAGAACUACAGAAAUGUAGUUGAGGAGGAGGAGGUUUAUCGAAUUUUCGGCGAAUGACUCCAAA the “self-cleavage kobs at 640 uM GlcN6P” value was under 1e-05 s⁻¹. With AUAAAAGCGCCAGCACUACAGAAAUGUAGUUGACGAGGAGGAGGUUUAUCGAAUUUUCGGCGGUUGUCUCCAAA the “self-cleavage kobs at 640 uM GlcN6P” value was under 1e-05 s⁻¹. For AUAAAGGCGCCCGAACUACAGAAAUGUAGUUGACGAGGAGGAGGUUUAUCGAAUUAUCGGCGGAUGCCUCCAAA, the “self-cleavage kobs at 640 uM GlcN6P” value was 5.6e-05 ± 1.6e-05 s⁻¹. AUAAAAGUGCCAGGACUACAGAAAUGUAGUUUCCGAGGAGGAGGUUUAUCGAAUUUUCGGCGGAUGCCUCCAAA was tested, and the “self-cleavage kobs at 640 uM GlcN6P” value was under 1e-05 s⁻¹. AUAAAAGCGCCAGAACUACAGAAAUGUAGUUGAUGUGGAGCAGGUUUAUCGAGUUUUCGGCGGAUGCCUCCAAA was tested, and the “self-cleavage kobs at 640 uM GlcN6P” value was under 1e-05 s⁻¹. AUAAAAGCGCCCGAACUACAGAAAUGUAGUUGACGAGGAGGAGGUUUAUCGAAUUUUCGGCGGCUCCCUCCAAA was tested, and the “self-cleavage kobs at 640 uM GlcN6P” value was under 1e-05 s⁻¹. With AUAAAAGCCCCAGAACUACAGAAAUGUAAUUGACGAGGAGGAGGUUUAUCGAAUUUUCGGCAGAUGCCUCCAAA the “self-cleavage kobs at 640 uM GlcN6P” value was under 1e-05 s⁻¹. In the case of AUAAAAGCGCCAGAACUACAGAAAUGUAGUUGACGAGGAGGAGGCUUAUCGAAUUUUCGGCGGAUGCCGCCAAA, the “self-cleavage kobs at 640 uM GlcN6P” value is reported as 8.34e-05 ± 3.9e-05 s⁻¹. In the case of AUAAAAGCGCGGGAACUACAGAAAUGUAGUUGACGAGGAGGAGGGUAAUCGAAUUUUCGGCGGAUGCCUCGAAA, the “self-cleavage kobs at 640 uM GlcN6P” value is reported as under 1e-05 s⁻¹. With AUAAAAGCGCGAGAACUACAGAAAUGUAGUUGACGAGGAGGAGGUUUAACGAAUUUUCGGCGGAUGCCUCGAAA the “self-cleavage kobs at 640 uM GlcN6P” value was 8.96e-05 ± 3.1e-05 s⁻¹. For AUAAAAGCGCUAGAACUACAGAAAUGUAGUUGACGAGGAGGAGGUUUAUCGAAUUUUAGGCGGCUGCCUCCAAA, the “self-cleavage kobs at 640 uM GlcN6P” value was under 1e-05 s⁻¹.

Variants of: B1
Experiment: self-cleavage kobs at 2500 uM GlcN6P; higher = faster cleavage; RNA array
Settings: with glucosamine-6-phosphate
Outline: as §1
For AUAAAAGCGCCAGAACUACAGAAAUGUAAUUGACGAGGAGGGGGUUUAUCGAAUUGUCGGCGGAUGCCUCCAAA, the “self-cleavage kobs at 2500 uM GlcN6P” value was 0.00148 ± 0.00036 s⁻¹. With AUAAAAGCGCCAGAAUUACAGAAAUGUAGUUGACGUGUAGGAGGUGUAUCGAAUUUUCGGCGGAUGCCUCCAAA the “self-cleavage kobs at 2500 uM GlcN6P” value was under 1e-05 s⁻¹. In the case of AUAAAAGCGCCAGAACUACAGAAAUGUAGUUGACGAGGAGGAGGUUUAUCGCAUUUUCAGCGGAAGCCUCCAAA, the “self-cleavage kobs at 2500 uM GlcN6P” value is reported as under 1e-05 s⁻¹. With AUAAAAGCGCCAGAACUACAGAAAUGUAGGUAACGAGCAGGAGGUUUAUCGAAUUUCCGGCGGACGCCUCCAAA the “self-cleavage kobs at 2500 uM GlcN6P” value was under 1e-05 s⁻¹. With AUAAAAGCGCCAGUACUACAGAAAUGUAGUUGACGAGGCGGAGGUUUAUCGAAUUUUCGGCGGGUGCCUCCAAA the “self-cleavage kobs at 2500 uM GlcN6P” value was 0.000771 ± 0.0002 s⁻¹. In the case of AUAAAAGCGCCAGAACUACAGAAAUGUAGUGGACGAGGAGGAGAUAUAUCGAAUUUUCGGCCGAUGCCUCCAAA, the “self-cleavage kobs at 2500 uM GlcN6P” value is reported as under 1e-05 s⁻¹. In the case of AUAAAAGCGCCAGAACUACAGAAAUGUAGUUGAGGAGGAGGAGGUUUAUCGAAUUUUCGGCGAAUGACUCCAAA, the “self-cleavage kobs at 2500 uM GlcN6P” value is reported as under 1e-05 s⁻¹. With AUAAAGGCGCCCGAACUACAGAAAUGUAGUUGACGAGGAGGAGGUUUAUCGAAUUAUCGGCGGAUGCCUCCAAA the “self-cleavage kobs at 2500 uM GlcN6P” value was 0.000102 ± 2.1e-05 s⁻¹. For AUAAAAGCGCGGGAACUACAGAAAUGUAGUUGACGAGGAGGAGGGUAAUCGAAUUUUCGGCGGAUGCCUCGAAA, the “self-cleavage kobs at 2500 uM GlcN6P” value was under 1e-05 s⁻¹.

Variants of: B1
Experiment: self-cleavage kobs at 10000 uM GlcN6P; higher = faster cleavage; RNA array
Settings: with glucosamine-6-phosphate
Outline: as §1
In the case of AUAAAAGCGCCAGAAUUACAGAAAUGUAGUUGACGUGUAGGAGGUGUAUCGAAUUUUCGGCGGAUGCCUCCAAA, the “self-cleavage kobs at 10000 uM GlcN6P” value is reported as under 1e-05 s⁻¹. For AUAAAAGCGCCCGAACUACAGAAAUGUAGUUGACGAGGAGGAGGUUUAUCGAAUUUUCGGCGGCUCCCUCCAAA, the “self-cleavage kobs at 10000 uM GlcN6P” value was under 1e-05 s⁻¹.
